{
  "source": "the DeepSol protein solubility set",
  "experiment": "soluble on expression in E. coli; label from the status in PepcDB or PDB records",
  "data": [
    {"sequence": "MGHHHHHHSHMFLVLKKKHICHRNLVNILQLNMYVCCLDKCNHCKHLYDLGFCFYFEMGAFLFTSSLKTKNCFCKEMRFFLNNKKCLADSLLNKNLPNFLIDYFKPFVTWYSFASQFRFRVITFPLFLRKMKKVILLSEGERHSFIFFFFFFFFL", "values": [
      {"measurement": "soluble on expression in E. coli", "result": "not soluble"}
    ]},
    {"sequence": "MPHPNRTFKIVIAPDSFKSTATTSQAAAFIAEGIQAAVQSNECEGINVEITTVPMADGGEGTSSCFEGIDITLPTTDANGRLTEATYRFDPQSETAYIDVAAASGLPAVEDELRPLTADTYGTGVLIADAQTRGARR", "values": [
      {"measurement": "soluble on expression in E. coli", "result": "not soluble"}
    ]},
    {"sequence": "MEKKKLTTAAGAPVVDNNNVITAGPRGPMLLQDVWFLEKLAHFDREVIPERRMFAKGSGAFGTFTVTHDITKYTRAKIFSEVGKKTEMFARFSTVAGERGAADAERDIRGFALKFYTEEGNWDMVGNNTPVFYLRDPLKFPDLNHIVKRDPRTNMRNMAYKWDFFSHLPESLHQLTIDMSDRGLPLSYRFVHGFGSHTYSFINKDNERFWVKFHFRCQQGIKNLMDDEAEALVGKDRESSQRDLFEAIERGDYPRWKLQIQIMPEKEASTVPYNPFDLTKVWPHADYPLMDVGYFELNRNPDNYFSDVEQAAFSPANIVPGISFSPDKMLQGRLFSYGDAHRYRLGVNHHQIPVNAPKCPFHNYHRDGAMRVDGNSGNGITYEPNSGGVFQEQPDFKEPPLSIEGAADHWNHREDEDYFSQPRALYELLSDDEHQRMFARIAGELSQASKETQQRQIDLFTKVHPEYGAGVEKAIKVLEGKDAK", "values": [
      {"measurement": "soluble on expression in E. coli", "result": "soluble"}
    ]},
    {"sequence": "MSLINFGIIGAGNIANRFADSLSHFKDANLYAVACRGIEKAAAFQRKHPCQLIYDDYDELLSNKDIDIVYIAVPHGFHYLWISKALKKGKAVLCEKPATLNAEQMKSVQKLAEAKNIFFMEAMKSRFTPAYQEIKTIINNGEIGKIISIDSSFCREISKKTATYHFQPIQGGCLLDIGIYNVALTEDFAKTLPKVEVLENKMDISGVESYTKAKLLFPNLSATIECAFDRNKQTEATIKGEKGQIEIKNFHRAESFIVKTSSGTKNYHIAYEQDDFHGEIAHVIQCYGKNKTESNNMPISDSVNCALIIEKIKNQIPELAEGHHHHHH", "values": [
      {"measurement": "soluble on expression in E. coli", "result": "soluble"}
    ]},
    {"sequence": "MDGPHGTPVLDRIAKLREELPPPAVPGKGQKTDGRWFDGNGAVRDSVSGKDVDSEEAWRLLRESGIPLPRPPVVAHAEMKVAAAMRRLNVRHAVLVITNVPCDERWSCENLLPAVLPVGCSLSVHGPGYQRTFHGRTPKW", "values": [
      {"measurement": "soluble on expression in E. coli", "result": "not soluble"}
    ]},
    {"sequence": "MEDKLVTLAILTYTKAQILKNVLENEGIETYIHNVNQIQPVVSSGVRLRIKESDLPRALKITESSTWLSESIVGEKTPKVDSKSNKILIPVDFSNYSMKACEFGFNLAKTENSEVILLHVYFTPIYASSLPYGDVFNYQIGDEESVKTIIQQVHSDLNALSDKIKEKVASGEFPDIKYSCILREGIPEEEILRYAKEQRPKVIIMGTRGKSQKDIDLIGSVTAEIIDRSRTAVLAIPENTPFKEFNEVKRIAFLTNFDQRDLIAFEAFFNTWKSFHFSVSLIHLAESKDTWNEIKLAGIKDYFQKQYPGLEIHYDVVMNDNLLKGLDKYIKDNQIDIITLTSYKRNIFARLFNPSIARKMIFHSDTPLLVING", "values": [
      {"measurement": "soluble on expression in E. coli", "result": "not soluble"}
    ]},
    {"sequence": "MGSDKIHHHHHHMGRVLIIGAGGVGTVVAHKVAQNADVFTDIMIASRTKEKCDNIVKAIGNPNIKTAKVDADNVDELVALFNDFKPEMVINVALPYQDLTIMEACLKAGVNYLDTANYEPKDEAHFEYSWQWAYHDRFKEAGLTAILGCGFDPGVSGIYTAYAAKHYFDEIQYLDIVDCNAGNHHKAFATNFNPEINIREITQNGRYYENGQWVTTGPLEIHKDLTYPNIGPRDSYLLYHEELESLVKHFPTIKRARFWMTFGQEYLTHLRVIQNIGMARIDEVDYNGTKIVPLQFLKAVLPNPQDLGENYEGETSIGCRIRGIKDGKERTYYVYNNCSHQEAYKETGMQGVSYTTGVPAMIGAMMFFKGEWQRPGVNNVEEFNPDPFMEQLNKQGLPWHEVFDKDLEL", "values": [
      {"measurement": "soluble on expression in E. coli", "result": "not soluble"}
    ]},
    {"sequence": "MEGNGSVDMFSEVLENQFLQAAKLVENHLDSEIQKLDQIGEDELELLKEKRLAALRKAQQQKQEWLSKGHGEYREIGSERDFFQEVKESEKVVCHFYRDTTFRCKILDRHLAILAKKHLETKFLKLNVEKAPFLCERLRIKVIPTLALLRDGKTQDYVVGFTDLGNTDDFTTETLEWRLGCSDVINYSGNLMEPPFQSQKKFGTNFTKLEKKTIRGKKYDSDSDDD", "values": [
      {"measurement": "soluble on expression in E. coli", "result": "soluble"}
    ]},
    {"sequence": "MMHFEVHGRTDAEAPTILLSSGLGGSSAYWLPQIEALSDHFRIVTYDHRGTGRTGGEVPTEGGISAMADDVLEIVSALNLEKFHFMGHALGGLIGLDIALRQPRLIDRLVLINAWSKADPHSGRCFDVRIELLEKSGVDAFVKAQPLFLYPAAWMSEHQERLARDDAHGVAHFQGKTNVLRRIAALRAFDIDARLGEIGNPVLVVATKDDLLVPYTRSLRLAEGLPQSELCLLDFGAHAVNITEPDLFNTRLLQFLLPADQT", "values": [
      {"measurement": "soluble on expression in E. coli", "result": "not soluble"}
    ]},
    {"sequence": "MRIGINVGSTQVDAVILSKHGKVVAASETVIQDDETVLAIKEALVSLIRYLRDTDEVRGVFIGATSECQEVKLGKGLAKTGLIRLNRYQSQIQPLMKWPKALSDHVVYTQSVEIGEELDWFNYFQESLARLKEAEVEAIAVVGAFSPMDNCSEQLVKESLNYHLPSIPVTMSHTIGSIGFLERENAAVLNAVLSKKMKNTLKGVKDFLSSLGFHCPLWVTRNDGCLMTIEEAIEFPVLTLGSGSANSFRGGAFLAEERSCIVVHVSEGITKIGTMIQERFEESHSQTYVFGIPTNLRMPHSIVLPLGEEKQGALGHDIRHGNPSEKTKREEVLISERKGISLAERHAGSSASNLEDQQEMWSTLKQSGLDREAMTQYAERVNDSIEELQIYDQELPIVVVGSGAPCMMQRLQSQTREVVAPFGYQRCHAVGACLGMVSAEVDQVYHLKDQTKAEVIEEAKEKAIKEAERKGAFPDTISIEQVEEYPFDYLQGEVIRIRVKAVGQVKDSLEHHHHHH", "values": [
      {"measurement": "soluble on expression in E. coli", "result": "not soluble"}
    ]},
    {"sequence": "QVQLQESGGGLVQAGDSLKLSCEASGDSIGTYVIGWFRQAPGKERIYLATIGRNLVGPSDFYTRYADSVKGRFAVSRDNAKNTVNLQMNSLKPEDTAVYYCAAKTTTWGGNDPNNWNYWGQGTQVTVSS", "values": [
      {"measurement": "soluble on expression in E. coli", "result": "soluble"}
    ]},
    {"sequence": "MSLNRNAILSKRQKQFIERVAWGASYKEVADFFHVSWSTVDNTLRNAKTKLGLSKVTELGAWWFCTNYGISFDLSPIARQCTAGIILFLFSLGEVTTITDASYTMQIVRRTRTEYRIRRHETSIYQPYIINEGHHHHHH", "values": [
      {"measurement": "soluble on expression in E. coli", "result": "not soluble"}
    ]},
    {"sequence": "MGGGPALNRDSSRHARPFISSPVKTLAIIPAFNEAQAIGPVLGDLPDGWVDEVVVVNNASTDATKANARAAGATVVDEPQQGYGAACLRGIAYAETRQPDVVVFLDGDYSDHPEELPRLVEPIAADEADFVVGSRIRGDAEPGALLPQAQVGNRFACSLMARLWGADYTDLGPFRAIRFRDLLALDMQDETFGWTIEMQIRALEAGLRVEEVPVSYRRGIGPSKITGTLSGTVKASAKILWTIGRMAATTHRRAPRLRERVDRARTDAPTPNPGGLEHHHHHH", "values": [
      {"measurement": "soluble on expression in E. coli", "result": "not soluble"}
    ]},
    {"sequence": "PDVSALDEVVVEAYGSKTRKITTTGAVTSVDVATLQTPATSLANMLGGRVAGIISTQGSGEPGKNISDFWIRGIGTFGANASALVLIDGLEGSLNDVDPADIESFSVLKDASATAMYGVRGANGVVLVTTKRGKQEK", "values": [
      {"measurement": "soluble on expression in E. coli", "result": "not soluble"}
    ]},
    {"sequence": "MTKKQKEILFCDYFEEWVEVYKVGAIAKITLAKYYNAAKQLRDLCPKLFISDFDRREYQRIINVYAETHEKQTVKDFHHHVKACIKDLFHDGLIDKDPTYRVVIKGAEPTRAKKRKFLQKEELSKLLQSLDMSQIGFGWFVMLVAKTGMRYAEALAITPADFDWTAQTISINKTWDYKYNKGFAKTKTLSSVRTIKIDWQIVGQFKPLIKDFPEDEPIFVEKFGDGTYKRQFNSTINNFLAVKCN", "values": [
      {"measurement": "soluble on expression in E. coli", "result": "not soluble"}
    ]},
    {"sequence": "SEFKVTVCFGRTRVDVPCGDGRMKVFSLIQQAVTRYRKAVAKDPNYWIQVHRLEHGDGGILDLDDILCDVADDKDRLVAVFDEQD", "values": [
      {"measurement": "soluble on expression in E. coli", "result": "soluble"}
    ]},
    {"sequence": "MSLDSACEGRFVNPITDICWSCIFPLSLGSIKVSQGKVPDTANPSMPIQICPAPAPLFRRIGLAIGYWEPMALTDVTRSPGCMVNLGFSLPAFGKTAQGTAKKDEKQVNGAFYHVHWYKYPLTYWLNIITSLGCLEGGDMDIAYLSEIDPTWTDSSLTTILNPEAVIFANPIAQGACAADAIASAFNMPLDVLFWCAGSQGSMYPFNGWVSNESSPLQSSLLVSERMAFKLHRQGMIMETIGKNNAVCNEYPSPILPKERWRYQMVNMYPDSGQCHPFGRSVMPWETGKNPPNTKKNFGYLMWRKRNCVFLEGHHHHHH", "values": [
      {"measurement": "soluble on expression in E. coli", "result": "soluble"}
    ]}
  ]
}
